Laboratory results reported in article PMC11157482.

Target: Aβ42 wild-type (UniProt P05067)
Assay: fluorescence correlation spectroscopy (FCS); oligomers formed from S8C-Alexa488 and WT Aβ42 monomers 1:1.5 (labeled/unlabeled), about 10 μM total, 37 °C, stopped at t1/2; fibrils removed by centrifugation, oligomeric fraction isolated on Superdex 75; measured alone (three replicates) or with unlabeled WT fibrils (six replicates) 3-7 min after start, 37 °C, 20 mM sodium phosphate, 0.2 mM EDTA, pH 8.0; three-component fit (free dye, monomer, oligomer)

oligomer dissociation half-life (in the presence of unlabeled WT fibrils): < 7 min
stoichiometry N: 37 monomers
Substance: Alexa-488-labeled Aβ42-S8C (peptide)
